The source of these data is paper PMC5372380.

This assay addresses BG505 SOSIP.664 trimer, His-tagged (HIV-1 isolate BG505). The assay is described as follows: SPR. For orientation: SPR reads the build-up and loss of mass on a sensor chip optically.

As for ACS202 Fab, the stoichiometry N (mAb per trimer) amounted to 3.
